Assay results taken from US8574601B2, “Sustained-release polymer micelle disruptable by HDL” (Nanocarrier Co., Ltd., priority 2010, dated 2013).

Assay: Rat intravenous administration test of polymer micelle encapsulating G-CSF (Example 1), plasma G-CSF concentration
Type: in vivo
Settings: 100 μg/kg i.v. tail vein, male Wistar rats; FIG. 3
Method: PEG-pGlu (10-40, 30% Chol) was used as a block copolymer. The block copolymer was weighed in a vial. A 20 mM 2-morpholinoethanesulfonic acid monohydrate (MES) buffer (pH 5) was added thereto so as to achieve a polymer concentration of 2 mg/mL and the mixture was vigorously stirred at 4° C. overnight. The polymer solution was subjected to ultrasonic irradiation (in an ice water bath, Low, interval of 1 second, 10 minutes) using a biodisruptor (High Power Unit manufactured by NIHONSEIKI KAISHA LTD.) and then treated with a 0.22-μm membrane filter. Thus, an empty micelle solution having a polymer concentration of 2 mg/mL was obtained. […]
The solution of the polymer micelles encapsulating G-CSF obtained above was administered to male Wistar rats via the tail vein. […] The plasma G-CSF concentration was measured using a G-CSF-ELISA kit (manufactured by RayBiotech, Inc.). […]
FIG. 3 illustrates the results of Example 1 (average±SD). FIG. 3 also illustrates theoretical values for the time-course of plasma concentration of a mixed polymer micelle (1:1), which theoretical values were calculated from the results of the time-courses of the plasma concentration of the test examples using PEG-pGlu (10-40, 30% Chol) and PEG-pGlu (10-40, 60% C8).

B1: G-CSF: G-CSF solution (100 μg/mL) administered directly (protein, UniProt P09919 31-207, looked up)
Granulocyte …: TPLGPASSLPQSFLLKCLEQVRKIQGDGAALQEKLVSECATYKLCHPEELVLLGHSLGIPWAPLSSCPSQALQLAGCLSQLHSGLFLYQGLLQALEGISPELGPTLDTLQLDVADFATTIWQQMEELGMAPALQPTQGAMPAFASAFQRRAGGVLVASHLQSFLEVSYRVLRHLAQP
- retention time in plasma: extremely short
